# Test results taken from IntAct's records for PubMed 17289582.
# Molecular target: fap24_human FAAP24 (UniProt Q9BTP7)
# Sequence of UniProt Q9BTP7 (Q9BTP7 whole entry): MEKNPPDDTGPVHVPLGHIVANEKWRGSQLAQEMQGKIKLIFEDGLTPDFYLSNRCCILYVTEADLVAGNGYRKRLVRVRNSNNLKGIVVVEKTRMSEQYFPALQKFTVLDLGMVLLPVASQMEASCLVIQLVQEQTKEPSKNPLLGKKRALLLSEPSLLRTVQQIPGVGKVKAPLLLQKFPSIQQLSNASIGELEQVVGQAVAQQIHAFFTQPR
substance,measurement,value
"Fanconi anemia group M protein (Homo sapiens), Q8IYD8 K117R",effect of a mutation on the interaction,with no effect
